Target: T1, BSA (UniProt P02769 25-607)
T1 construct: also called carrier protein BSA; 3% BSA
Assay: phage ELISA on coated plates, detection with HRP/anti-M13, OD450

T1 sequence (P02769 25-607 limits assumed): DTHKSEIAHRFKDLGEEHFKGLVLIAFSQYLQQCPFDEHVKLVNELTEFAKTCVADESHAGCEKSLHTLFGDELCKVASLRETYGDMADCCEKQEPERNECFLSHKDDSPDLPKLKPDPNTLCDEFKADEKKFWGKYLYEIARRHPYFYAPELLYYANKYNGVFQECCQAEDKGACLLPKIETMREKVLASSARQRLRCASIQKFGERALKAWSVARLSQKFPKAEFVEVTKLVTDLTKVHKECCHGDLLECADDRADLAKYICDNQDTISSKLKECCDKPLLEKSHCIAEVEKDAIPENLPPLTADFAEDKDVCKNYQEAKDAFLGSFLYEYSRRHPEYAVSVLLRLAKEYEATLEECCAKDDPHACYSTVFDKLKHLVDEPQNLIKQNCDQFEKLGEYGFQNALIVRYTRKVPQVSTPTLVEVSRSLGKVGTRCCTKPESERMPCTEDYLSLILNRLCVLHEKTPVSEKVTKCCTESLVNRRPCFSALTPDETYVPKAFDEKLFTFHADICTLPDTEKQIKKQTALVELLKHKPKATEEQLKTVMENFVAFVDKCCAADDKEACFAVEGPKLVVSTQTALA

B1: aflatoxin B1 nanobody 2014AFB-G15 (VHH)
VHH: QLQLVESGGGLVQAGGSLRLSCAASGRTFSSYAMGWFRQAPGKEREFVAAISWSGGSTYYTDSVKGRFTINRDNAKNTVYLQMNSLKPEDTAVYYCAAGFSGNYYRTPDYWGQGTQVTVSS
notes: also called antibody 2014AFB-G15
- binding result: no binding (tested: wells coated with 3% BSA)

Reference: patent publication EP3124498A1 (Oilcrops Research Institute of Chinese Academy of …, dated 2017)
